Consider 4 molecules from PMC4022651, “Substitutional Analysis of the C-Terminal Domain of AbrB Revealed Its Essential Role in DNA-Binding Activity”.

A value given as a limit tells only on which side of the number the result lay.

In series [1] the target is AbrB E80A (B. subtilis). Description: SEC; analytical gel filtration (FPLC) on Superdex 75 5/150 GL; running buffer condition I: 50 mM HEPES pH 7.5, 300 mM NaCl, 2 mM β-mercaptoethanol, no glycerol; 100 µl protein applied; 0.2 ml/min; polymeric forms as % of the areas under the curve of all protein peaks. (SEC sorts molecules by how far they enter the pores of the column.)

Series [2] addresses AbrB E80A (B. subtilis). Kind of series: SEC; analytical gel filtration (FPLC) on Superdex 75 5/150 GL; running buffer condition II: 50 mM HEPES pH 7.5, 300 mM NaCl, 2 mM β-mercaptoethanol with 10% glycerol; 60 µl (100 µg) protein applied; 0.2 ml/min; polymeric forms as % of the areas under the curve of all protein peaks.
In series [3] the target is AbrB Q91A (B. subtilis). Description: SEC; analytical gel filtration (FPLC) on Superdex 75 5/150 GL; running buffer condition I: 50 mM HEPES pH 7.5, 300 mM NaCl, 2 mM β-mercaptoethanol, no glycerol; 100 µl protein applied; 0.2 ml/min; polymeric forms as % of the areas under the curve of all protein peaks.
Series [4] concerns the target AbrB Q91A (B. subtilis). Kind of series: SEC; analytical gel filtration (FPLC) on Superdex 75 5/150 GL; running buffer condition II: 50 mM HEPES pH 7.5, 300 mM NaCl, 2 mM β-mercaptoethanol with 10% glycerol; 60 µl (100 µg) protein applied; 0.2 ml/min; polymeric forms as % of the areas under the curve of all protein peaks.
The test system of series [5] is AbrB R15A (Bacillus subtilis 168). Description: EMSA. As to conditions: apparent KD', from plot against AbrB tetramer; 20 mM Tris-HCl pH 8, 100 mM KCl, 5 mM MgCl2, 1 mM DTT, 10% glycerol, 0.1 mg/ml poly(dI-dC), room temperature, 20 min; 1.14 nM phyC or 0.95 nM sinIR DNA. (Mobility shift assays separate free from complexed probe on a gel.)
Series [6] concerns the target T1, AbrB wt (Bacillus subtilis 168, UniProt P08874 3-96).
T1 sequence: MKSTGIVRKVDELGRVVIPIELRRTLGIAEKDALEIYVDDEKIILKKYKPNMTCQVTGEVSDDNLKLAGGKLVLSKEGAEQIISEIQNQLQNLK
Kind of series: EMSA. The settings on record: apparent KD', from plot against AbrB tetramer; 20 mM Tris-HCl pH 8, 100 mM KCl, 5 mM MgCl2, 1 mM DTT, 10% glycerol, 0.1 mg/ml poly(dI-dC), room temperature, 20 min; 1.14 nM phyC or 0.95 nM sinIR DNA.

The target in series [7] is T1, AbrB wt. Description: EMSA; shift above 0.1 uM, no super shift; 20 mM Tris-HCl pH 8, 100 mM KCl, 5 mM MgCl2, 1 mM DTT, 10% glycerol, 0.1 mg/ml poly(dI-dC), room temperature, 20 min; 1.14 nM phyC or 0.95 nM sinIR DNA. The settings on record: protein: recombinant; tags: His6; chain copies: 4; label: 5'-32P; blunt.

Regarding AbrB E80A (natural protein), in the series with AbrB E80A (B. subtilis) [1], the % of the protein (AUC) in the form with n 3.9 was 78% and the % of the protein (AUC) in the form with n 8.2 was 22%. Also, in the series with AbrB E80A (B. subtilis) [2], the % of the protein (AUC) in the form with n 4.5 was 90% and the % of the protein (AUC) in the form with n 56.3 was 10%.
One may read the stoichiometry N as the number of molecules, sites or subunits per partner or assembly. For the molecule AbrB Q91A (natural protein), in the series with AbrB Q91A (B. subtilis) [3], the % of the protein (AUC) in the form with n 4.7 was determined as 85% and the % of the protein (AUC) in the form with n 8.2 was found to be 15%. In the series with AbrB Q91A (B. subtilis) [4], the % of the protein (AUC) in the form with n 4.1 is over 95% and the stoichiometry N turned out to be 4.1.
In the case of phyC promoter 440 bp, the Kd turned out to be 3400 nM in series [5] and 660 nM with AbrB wt [6].

B1: sinIR P1 AbrB site 36 bp (dsDNA)
DNA 1: GTGATTTAATGGCAAATGACTTCCAGAGACTAATGA
DNA 2: TCATTAGTCTCTGGAAGTCATTTGCCATTAAATCAC
In the case of B1, the binding result with AbrB wt [7] was “binds”.
